Measured values from US20240301070A1, “IMPROVING ANTIBODY TOLERABILITY ASSOCIATED WITH INTRAVENOUS ADMINISTRATION” (BIOINVENT INTERNATIONAL AB, priority 2020, published 2024).
Entries after “also recorded” stand apart in the source; their conditions may differ.

Key:
wildtype C57/BL6 mice [1] = test: Macroscopic IRR scoring (0-2) of mice after antibody injection; type: in vivo, mouse
Protocol: Six to eight weeks-old (17-20 g) female C57/BL6 and Balb C mice were obtained from Taconic or Janvier. Mice were injected i.v with mouse anti-CD32B AT-130-2 IgG2a either as a bulk dose of 200 ug/mouse or as a split-dose with 8 ug/mouse followed by 200 ug/mouse. […]
Mice were monitored post injection with regards to changes in behavior and macroscopic symptoms such as isolation, mobility, and fur condition. Macroscopic IRRs scoring system of 0-2 was set up based on the observations.
These premedications were given i.p 1h prior to injection i.v of mouse anti-CD32B AT-130-2 IgG2a as a bulk dose of 200 ug/mouse. […]
Mice were monitored post injection with regard to changes in behavior and macroscopic symptoms such as isolation, mobility, and fur condition. Macroscopic IRRs scoring system of 0-2 was set up based on the observations: […]

wildtype C57/BL6 mice [2] = test: Platelet count in fresh mouse blood (Vetscan); type: in vivo; details: 40 mg/kg, 1 hour only, 10 mg/kg AT-130-2 IgG2a i.v.
Protocol: Blood samples were collected from vena saphena 20 min post injection of bulk dose of anti-CD32B for instant blood count analysis. For liver enzyme and cytokine analysis, the mice were bled from the aorta under isoflurane anesthesia just prior to sacrifice. Samples for liver enzymes and cytokines were collected 1h and respectively 3h after bulk dose.
Platelet counts were analyzed in fresh blood using a Vetscan (Vetscan HM5 Abaxis, Triolab).
Blood samples were collected from vena saphena for instant blood count analysis. For serum concentrations of AT130-2, liver enzyme and cytokine analysis, the mice were bled from the aorta under isoflurane anesthesia just prior to sacrifice.
Blood samples were collected from vena saphena for instant blood count analysis.

[3] = molecular target: mouse CD32B (FcγRIIB) (mouse) (UniProt P08101); test: receptor saturation at 10 ug/ml serum concentration of AT-130-2; separate experiments not shown
Chain of mouse CD32B (FcγRIIB) (mouse) (P08101 30-207 limits assumed): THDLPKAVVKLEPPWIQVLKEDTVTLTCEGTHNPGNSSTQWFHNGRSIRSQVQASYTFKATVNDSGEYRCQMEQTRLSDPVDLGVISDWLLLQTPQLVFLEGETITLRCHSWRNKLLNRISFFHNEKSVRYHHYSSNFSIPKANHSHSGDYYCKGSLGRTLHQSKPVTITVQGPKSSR

[4] = tested on: human subjects with non-hodgkins B-cell lymphoma; test: IRR grading in clinical studies with BI-1206; type: in vivo
Text: The IRR that may be prevented or mitigated as described herein and/or that may be predicted with the method described herein may be any IRR. The adverse event denoted “Infusion related reaction” in the CTCAE version 5.0 is used for disorders characterized by adverse reaction to the infusion of pharmacological or biological substances; belonging to the group of “Injury, poisoning and procedural complications”.

[5] = tested on: human subjects with non-hodgkins B-cell lymphoma; test: Platelet counts in clinical studies with BI-1206; type: in vivo
Text: (§1) Platelet counts, ALT concentrations and IRR grading were obtained from clinical sites where anayzed and reported according local standard procedures.

[6] = tested on: human subjects with non-hodgkins B-cell lymphoma; test: Cytokine analysis of plasma/serum of human subjects (MSD); type: in vivo
Protocol: For cytokine concentrations, frozen plasma samples were thawed and diluted ×2 and ×8. Two parallel set of cytokines were analyzed, the proinflammatory assay with IL-6, IL-8, TNF-α, IFN-γ, IL-10, IL-2 and IL-4 (MesoScale Discovery (MSD) #K15049), and the chemokine assay with MIP-1β, IL-1β, IL-23, IL-12p 70, TARC and VEGF (MSD #K15067). The assays followed the manufacturer's protocol as outlined briefly: 50 μL of sample and calibration standard were added to the appropriate MSD plates and incubated. Following washing, 25 µL of SULFO-TAG detection antibody mixture were added to each well of the corresponding plate. The plates were analyzed on a QuickPlex SQ120 Reader instrument (MSD) and cytokine concentration was calculated using the MSD software (Discovery Workbench, 2013; version LSR-4-0-12).

FcgRIIb = molecular target: T1, FcgRIIb (Homo sapiens, UniProt P31994); test: FcgRIIb receptor occupancy on peripheral B cells (flow cytometry); type: in vivo; details: 100 mg BI-1206
T1 construct: FcgRIIb receptor occupancy on peripheral B cells (A) and peripheral B cell levels (B) in human subjects; endogenous in cells; host or cells: peripheral CD19+ B cells in whole blood of human subjects (same method also used on hFcgRIIB transgenic mice)
T1 sequence (P31994 43-310): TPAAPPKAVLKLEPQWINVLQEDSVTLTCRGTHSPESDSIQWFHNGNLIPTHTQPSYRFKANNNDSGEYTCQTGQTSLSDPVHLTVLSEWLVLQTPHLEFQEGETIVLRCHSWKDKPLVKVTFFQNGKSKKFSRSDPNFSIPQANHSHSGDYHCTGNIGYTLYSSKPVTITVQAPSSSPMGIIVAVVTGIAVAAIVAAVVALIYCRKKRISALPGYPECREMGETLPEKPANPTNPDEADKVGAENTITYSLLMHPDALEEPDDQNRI
Protocol: The FcgRIIb receptor occupancy in humans and hFcgRIIb transgenic mice was analyzed using flow cytometry. Whole blood from was incubated with either 005-C05 antibody (targeting hFcgRIIb) or anti-hCD32-AF647 antibody. 005-C05 binds the same epitope as BI-1206 but with much lower affinity. In the analysis, the Geo Mean of respectively mAb (005-C05 and anti-human CD32) was acquired on the CD19+ cell population. Receptor occupancy (RO) was calculated using the following equations: RO (%)=((Total Receptors-Normalized Free Receptors)*100)/Total Receptors. All replicates of 005-C05 geo mean of CD19+ cells were then multiplied by the Normalization factor.

peripheral B lymphocytes = test: Peripheral B lymphocyte depletion in human subjects; type: in vivo; details: 100 mg BI-1206
[7] = tested on: human subjects with non-hodgkins B-cell lymphoma; test: ALT/AST in clinical studies with BI-1206
Text: as §1

[8] = 70 mg BI-1206, subjects 501-001 and 503-002
[9] = ≥50 mg BI-1206 (FIG. 6: 70-100 mg)

`CCCCCCCCCCCCCCCCCCNC(=O)OCC(COP(=O)([O-])OCC[n+]1ccsc1)OC` (stereo not drawn) [anti-PAF] was tested, and the “inhibition of IRRs by other pre-medications” value (wildtype C57/BL6 mice [1]; i.p. 1h prior to i.v. AT-130-2 IgG2a bulk dose 200 ug/mouse) was “None of these pre-medications could inhibit IRRs; also recorded: none of the tested substances (anti-PAF, anti-IL-6, anti-histamine and a leukotrien-antagonist) could prevent the IRRs”.

In the case of `C[C@H]1C[C@H]2[C@@H]3CCC4=CC(=O)C=C[C@]4(C)[C@@]3(F)[C@@H](O)C[C@]2(C)[C@@]1(O)C(=O)CO` [betamethasone], the “effect of single premedication on macroscopic symptoms (IRRs)” value (wildtype C57/BL6 mice [1]; 40 mg/kg, 1 hour only, 10 mg/kg AT-130-2 IgG2a i.v.) is reported as “did not inhibited”, the “grade of macroscopic symptoms after single premedication” value (wildtype C57/BL6 mice [1]; 40 mg/kg, 24 hours only, 10 mg/kg AT-130-2 IgG2a i.v.) is reported as 1 and the “effect of single premedication on platelet decrease” value (wildtype C57/BL6 mice [2]) is reported as “did not inhibited”.

Compound “AT-130-2 IgG2a (anti-mouse CD32B IgG2a clone AT130-2) (antibody)” has a receptor saturation [3] of 100%.

With “BI-1206: anti-FcγRIIB antibody with light chain SEQ ID No: 1 and heavy chain SEQ ID No: 2” the “IRR's without two-dose premedication” value ([4]; 30 mg BI-1206, subject 201-003, 9 administrations) was “repeatedly experienced IRR's”, the “grade of IRR's with two doses of dexamethasone” value ([4]; 30 mg BI-1206, subject 201-003, 10th administration) was 1 and the “IRRs after premedication with two doses of dexamethasone” value ([4]; 70 mg BI-1206, subjects 501-001 and 503-002, 12 mg / 4 mg evening before and 20 mg 30 minutes prior) was “None of the subjects suffered any IRRs; also recorded: did not suffer IRRs”. The “grade of IRRs” value ([4]; 70 mg BI-1206 with rituximab, subjects 501-001 and 503-002, dexamethasone (20 mg) only 30 minutes prior to infusion) was 2-3, the “severity and frequency of IRRs after implementation of two-dose corticosteroid premedication” value ([4]; 70-100 mg BI-1206, study 17-BI-1206-02) was “Significantly lower frequency and severity of IRRs; also recorded: statistically significant reduced severity and frequency of IRRs” and the “infusion related reactions (IRRs) during BI-1206 infusions” value ([4]; i.v., human subjects) was “frequently associated with IRRs; also recorded: Frequent”. For the same compound, the platelet decrease ([5]; 30 mg BI-1206, subject 201-003) was “never been seen”, the “platelet decrease after premedication with two doses of dexamethasone” value [5, 8] was “no/low platelet decrease” and the platelets [5, 9] was “The decrease is transient”. For the same compound, the seriousness of thrombocytopenia [5, 9] was “never serious or associated with bleeding; also recorded: not been serious nor associated with bleeding”, the “time to resolution of most thrombocytopenia episodes” value [5, 9] was “within a week” and the “subjects with transient cytokine release” value ([6]; 70-100 mg BI-1206 (FIG. 6), serum/plasma available) was 7 of 8. For the same compound, the “association of cytokine release with clinical symptoms” value ([6]; ≥70 mg BI-1206) was “not been associated with clinical symptoms”, the “cytokines included in the release” value ([6]; ≥70 mg BI-1206) was “macrophage inflammatory protein (MIP)-1β, tumor necrosis factor (TNF)-α, interleukin (IL)-10, IL-8, IL-6, and IL-4” and the “time of peak cytokine release” value ([6]; ≥70 mg BI-1206) was “immediately after infusion”. For the same compound, the “time to normalization of cytokines” value ([6]; ≥70 mg BI-1206) was ≤ 24 h, the “FcγRIIB receptor occupancy on peripheral B cells” value (FcgRIIb) was ~100% and the “duration of receptor saturation” value (FcgRIIb) was “up to 48 hours”. The “peripheral B lymphocytes” value (peripheral B lymphocytes) was “transient depletion”, the “time to recovery of peripheral B lymphocytes” value (peripheral B lymphocytes) was “approximately 7 days” and the “ALT/AST increase after premedication with two doses of dexamethasone” value [7, 8] was “no ALT/AST increase”. The “subjects with significant ALT and AST increase” value ([7]; ≥70 mg BI-1206) was 3 out of 16.
